# Source: patent publication US20250101083A1 (XIAMEN UNIVERSITY, published 2025)
# B1: 125smIgG2 (Fc fusion)
# chain: QLQLVESGGGLVQAGGSLRLSCAASGGTISAYAMGWFRQAPGKDREFVAGISWTTSSAYYTDSVKGRFTISRDFAKNTVYLQMNSLKPEDTAVYYCNDRVSDTVGFGSWGQGTQVTVSSPRVPITQNPCPPLKECPPCAAPDLLGGPSVFIFPPKIKDVLMISLSPMVTCVVVDVSEDDPDVQISWFVNNVEVHTAQTQTHREDYNSTLRVVSALPIQHQDWMSGKEFKCKVNNRALPSPIEKTISKPRGPVRAPQVYVLPPPAEEMTKKEFSLTCMITGFLPAEIAVDWTSNGRTEQNYKNTATVLDSDGSYFMYSKLRVQKSTWERGSLFACSVVHEGLHNHLTTKTISRSLGK
# What was measured:
# [1] = target: T1, pTT5hIgG1-S5 fusion protein (hepatitis B virus (HBV subtype B)); assay: ELISA, fusion protein coated at 1 µg/mL, antibody at 1 µg/ml
# T1 construct: also called S5 (Loop2-Cter); Loop2-Cter
# [2] = target: T2, pTT5hIgG1-S4 fusion protein (hepatitis B virus (HBV subtype B)); assay: as above
# T2 construct: also called S4 (Cter); Cter
binder,measurement,setting,value
B1,binding result,[1],binds
same,binding result,[2],binds
